Measurements reported in the supplement of paper PMC12636428.

Tested on: Saccharomyces cerevisiae
Assay: transcriptional activation domain activity (GFP:mCherry ratio, weighted mean of sorted bins, harmonized to initial dataset scale) (arbitrary fluorescence ratio units); higher = stronger transcriptional activation
Settings: beta-estradiol 1 µM; induction time 4 h
Outline: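 The activation activity of each tile is the read-weighted mean of bin median fluorescence, averaged across its barcodes and mapped linearly onto the scale of the initial dataset. Tiles were fused to an estradiol-inducible synthetic transcription factor, barcoded, and integrated at URA3 in yeast diploids carrying a GFP reporter. Induction used 1 uM beta-estradiol in SC for 4 hours at 30 °C, after which cells were sorted into 8 GFP:mCherry bins, and any tile with fewer than 50 reads was dropped.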

| Sequence | transcriptional activation domain activity |
| --- | --- |
| LRAMVMAAPYDGDINITFTKHRSKIYIRPNNTLSELLSNGWIKFLAIILFIYP | 36600 |
| KEEDEAPAPRKARGKAKKAIVEEEEAPESEVEAPEPKAKKGRGRKAAVKKVVS | < 6570 |
| LIVGGGATGAGTALDAASRGLKVALVERDDFSAGTSSKSTKLVHGGVRYLQKA | 51800 |
| GRILIMLFLWLILRLQIRIVVREVLSRPCCCPFSTITSCAALEQYQRVYDQTA | 36700 |
| YYVPLLASPTFWAVTLPLYCVFVGIQVFFVFLEAAGLSLHLVVIFWWLGWWAG | 53000 |
| MWWRADGHYLNPLSQIFFSCEFWFFLLLFQMGDGFAFFFFLSIGLVTSFFFFF | 35400 |
| STPAPTTAAGGKKEAEKPEEKSEEKPEEKPAEKPAEKPAEKPAEVKPEEKAIQ | 25400 |
| ALSTADGGRVPAKRARKAINCGPCRLSKLKCDRERPCSSCKLRGTTASCYQGQ | 34000 |
| MLCIWLLSLYVWFVQEKGAYKPVLSSSFFFWLILQVYVHRYWLPFPSLTFLYH | 55500 |
| SICRLGVGLSITGYRLGSMVLLRHDLRLIVTVFSMHLKYFVSFARPSMKILLR | 67300 |
| LFYFIFILFFFTLGDICFRFFYFMGPCFVLFKMVLLIFFSPFSFLHLSLSWVT | 43100 |
| QAAQESDEESEAPNPTAKTLSKRAAEAWKQLSASDKDKYKVLADKEREEHARL | 28800 |
| FYGLYPDNAQTLGSAPKTPTMRLVKAYLKTILSNPESRKIFYFLVLNLSYMMV | 85300 |
| FILYSLLLIPFPLNYILSYIFFFFFLILWGIYLAMRGFFKSWFSLWAWAGNGI | 64600 |
| AASKKERQSESHASSKRARSSKNGRGADADSSDEEEAGRSSSRKSRRTSTGDR | 30200 |
| IVVVVSPGVLHVDVGITILYGEVIVGLRTGTKDVLLRWKIVQVERRWLGYTPE | 30500 |
| GEKGRKGGAEEGERRREEGGGRRRDEGERRGEGGAGSREGTGRAGEQGERGSR | 19200 |
| MSLVLLLFCLYLRCYSVLAMANGVSVLNAADYPFSVMITKPVMCGGALISLDP | 69000 |
| LNLGWRLMHFKVHFARIGVIVHGPQYGELTDWDCSSAHRGDILGFPKAQLLFE | 25100 |
| KPKRKERSDKGKKRGPRAKDGTGTKAAENTLVAKAKPAAKGQEKRRGKADDAK | 16700 |
| TSDTGKKRQIKEEAEEESEEEPPTKRQRRKPVEEKETPKKAAAKPKADKVPAK | 40500 |

| Sequence | transcriptional activation domain activity |
| --- | --- |
| SDSQKSGKIWGLCCTDSFGCLDLIIGLDLSDVLLVIQWRSTCDMCTLWQRLGH | 53500 |
| LDKKSGRLIKHSLCFTYKDLELLTRFFKEDHVIHPTIKAYVLAACTVLFHLLL | 62500 |
| GVCLKVGITRPKKPNSGERKTARVRLSSGRMITAYVPGEGHNIQQHSVVLVRG | 51900 |
| MSIVLLCSHIFYTLLGSRRFIAACFFWSLSVPSHLSHICLSCIFLLLSFFLLC | 53900 |
| VKHTYLMVTILLLFIFITMCCIMDNVRCIVALNNPGLDLGPPNSVIGILINAC | 18100 |
| MGDIKKISCIFFSFIFGLVLFFFVIIITIICILWIWAWDFWACFGSGLGLLVC | 47100 |
| LVWLDNWPAGLKLNTELSRFLCLCFMSLTDIWGNLLAPYLPLILRIIGIMGRT | 57200 |
| AHQRTTGASAEEKLALEVVLIMRNDLITHVIVYVLRSFLVYNAPLTGPLAEKL | 55000 |
| LSLADFAWKLSDGEEKREQCGNVAQILLNTISHRVLRTIIRHLVAVVGVLTPS | 60000 |
| KATEYCLYFFGLGPALFKSLLPDKYWQHYCMLVHAVRILVQRRITQTQMLEAY | 49300 |
| IAQRLEILIYSHIVCIPLIASFSCLSWIFWMEYYFAWWFDSVITIRDINWHML | 36500 |
| GFVLPLFFNSLCPMIPIGFSFVFHFFSHFSFLPIVCFPFPFHLFDTLGSFFFR | 33100 |
| MLLLRVAGGRVMGCDVVGGFFFIFLFYLFIILGFVCCLVGWHVCWVFWFLVGF | 54300 |
| PYLSRLGEKNILADLMEFYRCKESWSLQSGLVFIRRIILQQVPIDVRILCAFL | 35500 |
| MLLLLYLILYLMMMLFAVCALISIYLCIYTLPLLSFPFFLALFYFILFLYVYL | 45200 |
| SHALQNRRASHASSAGSGSRRGSREETGEHHHKKHHHHKKHHHRRHSHGGGGG | 54500 |
| SSSNQQTRTRDGPKKKKANRACLHCQKAHLTCDDSRPCQRCVRRGMANSCTEG | 29900 |
| LDHRVGIEKLYVSLFFLSTALLIIIEQYFPSLKSRGVLNFLWKLLYLPLLRLV | 43000 |
| HQLGLVMLGMRCDLMRWMVCMDGIEYAGDIVIYCPALLLQLQCIVHTYGWAAR | 41700 |
| MSDDSGASPTQRSVRKPHRKSRNGCLDCRRRRVKCGEEHPSCRVCVRRNVRCE | 49800 |
| MGGFVYAYCSAQSLTLLPWLLFFDYLFFSFLCILNYISFLFFYFLGFEVGWVI | 71200 |

| Sequence | transcriptional activation domain activity |
| --- | --- |
| AGTVPLMIYSTRLARESIGAWRLACLTLFIVTQIRGSVVLLAKSKLWTHILSC | 74600 |
| MFYFLLLYQSIVFLPYIFFSQFLIWVWCGLGREPGWHLEHGVYRYRWVRILSI | 39300 |
| TAANGKKSKGNKGGNAAGANANANAKANGNTKNGNGNSRNGNNKRMRALGSAM | 25700 |
| DADGNPTGDGEPPKKRRRRQALSCTECKRRKIKCDRNHPCSPCARRGDGQKCQ | 13000 |
| EKGKSIWIGRDNLEVNVETLALQWYEDQGFKGIHSETRIITTLFGILFWDIIF | 55900 |
| PVPAAAASPVAVPQPAPEQSKPVVKEEKKPEKKVDEERKRKGTKEGQQQQQQQ | 16700 |
| HSALSRSEVSGTGRKAYAQKGRGKARVGSLRAPHFRGGGRAFPVKPRDHSTKL | 17000 |
| PDEDEVVENAEKPKRRRRAKPTEEEQNEEQQNEEDAVENAGKKKRGKRTKPTE | 39900 |
| MDGSEANRPYHAKKPHRKSRSGCRNCKTRKVKCDESRPTCRACRLRREACAYP | 16600 |
| MYECACFPFPFFLSFFFFLSSFSYGCPFCFVGYRFPLLPLLLSVFLFLGLCLM | 33800 |
| VSTMLCYLNYCRTDVTVPTNSNPIFKLDNSLFLRLILLCNINLLLLLPFGLYL | 47100 |
| EGAQDCGESESEGANESEEESEEENVFVVGKILDKRTNGKRKQVEYLVRCESQ | 39600 |
| AYFAQDSEEELMSPTQSITSNLASEENTRCTTKDLMGTVSIFMLPMVEECYNI | 75100 |
| APRARPAPAQRVGPRARAAEQLHRADGQHRERARRQHGRRHPPAAGAAPAVRL | 52800 |
| MYDACLCGRLGFFYLLLVFFLSSVFHSHLFFLPFFGLFYLLRYFFFNFSTFVA | 52700 |
| MFCLRFFVPLLLLPAPSAPPLLILTLLISMWFLHRPCIYCSLLIVGFLISSCS | 55900 |
| EAAARRERKQAAEKGENRERKRRTQGLQNNTARSQKDGDGKGEGGKDNKKDGK | 29200 |
| IPPLVLFFHFHFPSCGGCAFCRCLFLCLLLLALSLPLIPVSLIMCYPCHMYLL | 41100 |
| VENPVTDDNGNLKLELPDNLDNADFSKLLEFDAKNDEALFNSNELLSHTMDPV | 94700 |
| EASLKAQKDEENESEEEGEGEEKEEGEKKEEEKKEEEKKEEEKKEDLEKLTEK | 33100 |
| GGGKGHEDGYMREVRVVPAYLLVEIINRKENRKERVGAKLLLTRACVLGLYTL | 45400 |

| Sequence | transcriptional activation domain activity |
| --- | --- |
| DPPPHPSCPPGSLIIKMVVYLRRRRLLVTWCEDPSVPEVRCLVVATQSQWVPM | 55300 |
| DKNYNNLTVYNFVYLFGGRVHLYKNLTFHVVVTYVCVISSIVFFLVFIAKWYW | 52100 |
| MSSMHKLVTIFTGQGRVLSFFSLCVLRGLYYYSLLLRYLYFTLLVFFLSLFPF | 49100 |
| KQYCVRPNSGRIEPGKEVDVQVLLQAMKEDPPLDAKCRDKFLVQSVAVTADKE | 27100 |
| MLSVSLSFPFLLFFFSVSIFLLLLLLFSVSFILLLSLFFCSSFSFFNSFMVFF | 43100 |
| MLYIIMKINLFMKVIMLFLVKLIVHYLMILLSLVLLLILLSSFIYICYILVLF | 37800 |
| RPYLLLLHLLCSFFFFESISIILAIAFQLLLIRASSHMIIRMLLQVYCFLSMR | 75900 |
| RLHILVGFVTVAEVTNIVFITRSSWRILIGGVERPDLILIPPATSVGTPILNG | 35000 |
| KLWAKRRAIYGNVFGFPGGVAWAMLVARICQLYPNAVSATIVGKFFNILTKWN | 33200 |
| LIHFFRLYRSGHGPIRMFFLHIQALYNLFNLIFSWFALANLWLTFSIIIRLVP | 70000 |
| LEEYYWKTLNFTTPMYGADTPGSIFPEGLNVWNVAKLPNILDHMETKVPGVND | 88300 |
| MPLQLRCLYNCDVSLIVMLLLGLLLGIFPSLHIEICICSRDLLLICMGMWPVR | 45500 |
| KFVDLGIFKAEGTRLRCRMCGFLIASLVLCMHMSQACPMYPRYPSSNMHEHPD | 29300 |
| MLIFVLIVCISLGLAMSFDSLSLHLQLHRLFCIFCVIFILFAHSFSVGLSCYI | 72000 |
| MCPVLFCFYSPMILIFFFFSSFSYLLYIHTILSWFVCLLFVCYYECFLLLSFS | 44700 |
| HESEESSDKKGKKKAKIEEEKEEEKEAEEEKAEEVEEAEEAEEVGEVGEEAAV | 45400 |
| MREYIRFYFDTLHSSRVFVVWLLTHVLFLEKDRLKAMFAKDEFNGIEEIKMRY | 24900 |
| RGDGMEERKGEKRGRKGGERGGRGEGGHRGRKGDTEGGRGTGEKRGGKGGKRG | 33500 |
| IYESALQTEHHKQGIGRSIAEAVKNRELSGFDQFQQIISFCLCVLKQLYRRFT | 37600 |
| PKDEKKQEDDQKAKDGSKSEGDLGEKKEEKVEEKKDDDNKSGEKKDEASKSGD | 28000 |
